EC50 (STAT3 luciferase reporter assay) data for four molecules are collected here from US20140314711A1.

The chains are these.
T1: human IL-22 receptor complex IL22R1 and IL10R2 (human) (UniProt Q8N6P7)
T1 sequence (looked up) 1: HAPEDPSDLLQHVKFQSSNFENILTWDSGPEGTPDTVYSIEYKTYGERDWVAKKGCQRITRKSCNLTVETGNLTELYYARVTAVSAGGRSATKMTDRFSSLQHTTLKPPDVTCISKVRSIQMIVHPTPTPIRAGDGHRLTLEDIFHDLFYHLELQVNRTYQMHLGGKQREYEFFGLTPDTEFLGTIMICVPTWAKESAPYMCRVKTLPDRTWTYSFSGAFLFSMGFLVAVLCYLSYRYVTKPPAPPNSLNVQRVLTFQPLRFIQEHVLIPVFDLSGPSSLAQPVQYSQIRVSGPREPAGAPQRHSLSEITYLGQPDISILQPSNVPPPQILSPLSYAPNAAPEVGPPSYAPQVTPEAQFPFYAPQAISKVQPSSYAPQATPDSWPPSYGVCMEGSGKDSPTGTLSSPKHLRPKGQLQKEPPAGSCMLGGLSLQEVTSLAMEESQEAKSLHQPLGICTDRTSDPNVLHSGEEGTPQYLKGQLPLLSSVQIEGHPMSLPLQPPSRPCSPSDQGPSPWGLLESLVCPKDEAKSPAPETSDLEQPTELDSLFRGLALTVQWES
T1 sequence (looked up) 2: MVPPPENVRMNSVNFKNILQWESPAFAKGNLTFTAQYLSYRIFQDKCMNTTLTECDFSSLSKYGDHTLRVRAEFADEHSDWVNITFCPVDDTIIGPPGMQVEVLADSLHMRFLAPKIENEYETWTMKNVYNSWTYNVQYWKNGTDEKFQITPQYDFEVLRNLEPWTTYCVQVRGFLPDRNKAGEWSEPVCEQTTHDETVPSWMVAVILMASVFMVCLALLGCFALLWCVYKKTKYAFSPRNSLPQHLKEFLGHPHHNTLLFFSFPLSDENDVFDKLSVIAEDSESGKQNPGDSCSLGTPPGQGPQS

B1: IL-22 Fc construct 13 (huIgG1, linker …) (Fc fusion, not shown: a dimerising Fc or GST)
chain: APISSHCRLDKSNFQQPYITNRTFMLAKEASLADNNTDVRLIGEKLFHGVSMSERCYLMKQVLNFTLEEVLFPQSDRFQPYMQEVVPFLARLSNRLSTCHIEGDDLHIQRNVQKLKDTVKKLGESGEIKAIGELDLLFMSLRNACIKVDKKVEPKSSDKTHTCPPCP
B2: IL-22 Fc construct 18 (huIgG1, linker …, N297G) (Fc fusion, not shown: a dimerising Fc or GST)
chain: APISSHCRLDKSNFQQPYITNRTFMLAKEASLADNNTDVRLIGEKLFHGVSMSERCYLMKQVLNFTLEEVLFPQSDRFQPYMQEVVPFLARLSNRLSTCHIEGDDLHIQRNVQKLKDTVKKLGESGEIKAIGELDLLFMSLRNACIKKVEPKSSDKTHTCPPCP
B3: IL-22 Fc construct 12 (huIgG1, linker …) (Fc fusion, not shown: a dimerising Fc or GST)
chain: APISSHCRLDKSNFQQPYITNRTFMLAKEASLADNNTDVRLIGEKLFHGVSMSERCYLMKQVLNFTLEEVLFPQSDRFQPYMQEVVPFLARLSNRLSTCHIEGDDLHIQRNVQKLKDTVKKLGESGEIKAIGELDLLFMSLRNACIDKKVEPKSSDKTHTCPPCP
B4: IL-22 Fc construct 24 (huIgG1, linker …, produced in E. coli) (Fc fusion, not shown: a dimerising Fc or GST)
chain: APISSHCRLDKSNFQQPYITNRTFMLAKEASLADNNTDVRLIGEKLFHGVSMSERCYLMKQVLNFTLEEVLFPQSDRFQPYMQEVVPFLARLSNRLSTCHIEGDDLHIQRNVQKLKDTVKKLGESGEIKAIGELDLLFMSLRNACIEPKSSDKTHTCPPCP

In the test the target is T1, human IL-22 receptor complex IL22R1 and IL10R2 (human). Nature of the test: cell-based or functional assay.
Molecule B1 returned an EC50 (STAT3 luciferase reporter assay) of 0.025 nM.

B2: the EC50 (STAT3 luciferase reporter assay) came to 0.02 nM.

The molecule B3 displayed an EC50 (STAT3 luciferase reporter assay) of 0.025 nM.

The molecule B4 registered an EC50 (STAT3 luciferase reporter assay) of 0.016 nM.
